Source: the MegaScale stability set (Tsuboyama et al. 2023)

B1: 6NMW (parent)
chain: QGDIVVALYPYDGIHPDDLSFKKGEKMKVLEEHGEWWKAKSLLTKKEGFIPSNYVAKLN
B2: HHH_rd2_0155 (parent)
chain: PPDDERKKAEKAARSGNEEKAREILERLGYSEDEARELAKRLR

Variants of: B1
Assay: folding stability dG (cDNA display proteolysis); higher = more stable
Settings: PBS, room temperature

Variant | folding stability dG [kcal/mol]
S20K | 2.48
V6L | 2.18
E31V | 2.64
L42Y | 2.14
A56Q | 3.85
I4F | 2.76
P10C | 3.89
S41W | 0.288
H15I | 1.63
F49I | 2.63
K45A | 3.94
E47L | 2.59
Y9C | 4.44
V5W | 4.11
D3V | 4.37
K45Y | 3.97
P16I | 3
D3S | 4.3
E25D | 2.36
V6C | 3.01
E35K | 3.94
K23F | 2.42
E35T | 3.73
V6Q | 2.01

Variant | folding stability dG [kcal/mol]
Y11R | 2.25
Q1Y | 4.04
V55C | 2.7
L8D | -0.146
K45F | 4.45
K57P | 3.63
D3L | 4.43
E25Y | 0.16
F49A | 1.48
A7V | 0.268
V6Y | 3.49
D18E | 4.6
E47Q | 3.21
H15L | 2.87
G13H | 0.829
G13Y | 0.268
Y9F | 3.72
K57D | 1.86
W37R | 2.28
E35W | 4.11
H15R | 3.93
L19S | -0.898
F21W | -0.416
Y54S | 1.81

Variant | folding stability dG [kcal/mol]
T44S | 3.08
D18S | 3.94
T44A | 0.515
S52Y | 3.08
S52A | 4.05
S20D | 1.82
P16N | 2.68
G13D | 0.145
L58H | 2.43
G24A | 1.25
V29F | 1.05
H15K | 3.48
N53K | 3.93
K22I | 3.84
D3Q | 4.27
S41M | 1.38
E31C | 4.09
F49L | 3.4
K22V | 3.82
Y9M | 3.43
D12Q | 4.13
W36G | 0.695
E31W | 3.2
K46E | 2.94

Variant | folding stability dG [kcal/mol]
W36F | 3.29
K38H | 2.92
M27C | 0.54
V29Q | 0.108
I4G | 0.464
G13C | 1.96
D3N | 3.87
W36E | 1.14
K28T | 3.27
E47C | 3.83
D18Q | 4.95
K57Q | 2.68
I14N | 3.02
G2R | 3
N53T | 3.74
P10T | 4.18
E32Y | 4.42
P10W | 2.74
K28F | 3.91
G48A | -0.512
H33W | 3.34
I4A | 0.908
G13W | 0.736
E32G | 3.33

Variant | folding stability dG [kcal/mol]
S41A | 1.22
F49T | 2.25
L30Q | 1.56
P16S | 2.98
Y9G | 1.46
K22N | 2.67
G34I | 1.4
P16R | 2.87
K26N | 2.15
I4R | 0.874
D18Y | 4.04
D18R | 3.15
W37V | 3.04
D12K | 4.34
V6D | -0.164
L58I | 3.89
K40R | 4.32
E25A | 1.21
Q1F | 3.8
W37T | 2.67
K45Q | 4.25
I14Q | 3.67
Y9D | 1.08
G34A | 2.02

Variant | folding stability dG [kcal/mol]
I50C | 0.571
K26I | 4.68
A56S | 3.31
Q1D | 3.76
Q1S | 3.89
K46C | 3.37
K38M | 3.87
F21Y | -0.495
K46H | 2.64
E32V | 4.48
V5T | 0.383
A7Y | -0.494
L43V | 3.56
P51F | 1.25
F49G | 0.912
D18K | 3.08
L19T | 0.168
E35C | 4.75
E32A | 4.31
K38A | 1.72
G2I | 3.12
E35A | 4.01
E25S | 0.621
E47I | 4.37

Variant | folding stability dG [kcal/mol]
L43A | 3.2
L58W | 3.73
G24S | 1.3
K23Q | 3.22
L19P | -0.243
N59K | 3.53
N59F | 3.48
L43G | 2.02
L19D | -0.824
K28R | 4.26
I50V | 2.59
A56K | 4.04
P10L | 2.23
G2L | 3.21
L43D | 3.14
A39F | -0.401
K23G | 1.64
L58Y | 3.52
Y9A | 2.74
D12L | 3.69
A39G | 1.44
D12P | 3.14
N59V | 3.95
W36R | 4.45

Variant | folding stability dG [kcal/mol]
E32D | 4.38
K40E | 2.86
W36H | 2.3
T44H | 0.98
W37M | 4.7
H15S | 3.26
K23N | 1.18
A39I | 1.95
D17N | 3.83
S41T | 0.669
V5A | 2.41
V55Y | 0.703
K22Q | 3.49
G24W | 2.51
K22H | 2.66
N53E | 3.19
L58N | 1.86
H33N | 3.62
W37Q | 1.99
P16G | 2.75
G24H | 2.15
V5C | 3.86
L43E | 3.22
G48C | 0.255

Variant | folding stability dG [kcal/mol]
I50L | 1.58
P10S | 4.61
L8A | 0.801
K22E | 3.06
Y11M | 0.669
P51L | 1.54
A39S | 0.729
S41G | -0.006
T44W | 0.672
M27W | -0.174
P10H | 3.93
L43I | 3.26
V6I | 4.06
K23C | 3.59
L30R | 0.866
S52N | 2.58
I14M | 3.36
G2A | 3.27
K40I | 3.96
N53F | 3.06
E47V | 4.3
S41H | 2.95
E35P | 3.64
N59Y | 3.57

Variant | folding stability dG [kcal/mol]
D12C | 4.27
S52T | 2.23
G13I | 0.929
K26V | 4.19
P51A | 0.249
S20F | 1.18
P10Q | 3.77
G24C | 3.62
K26G | 1.11
P10K | 3.78
A39V | 4.31
D18N | 2.88
T44Q | 1.26
L19C | 0.728
L42V | 1.88
K38T | 2.18
P51K | 1.62
K45I | 1.8
A7I | -0.263
D18I | 2.69
K38F | 4.92
N59A | 3.8
V55S | -0.255
K26P | 2.39

Variants of: B2
Assay: as above
Settings: PBS, room temperature

Variant | folding stability dG [kcal/mol]
A21Y | 1.52
E19N | 1.81
R43I | 1.55
E37G | 1.38
E5A | 1.86
Y30T | 0.175
K20Y | 2.11
P2L | 2.14
K7R | 2.25
A9L | 1.33
L42S | 0.87
L42E | 0.286
A9E | 1.03
E26A | 1.73
K11P | 0.889
E34D | 1.87
D3P | 1.89
A35T | 0.991
L28M | 2.29
G29K | 0.226
E34L | 1.35
S31D | 1.36
R43S | 1.85
E34A | 1.78

Variant | folding stability dG [kcal/mol]
R43G | 1.48
R6D | 0.9
P1N | 2.41
R27N | 1.7
G16R | 1.11
D4A | 2.09
L38F | 1.51
A39R | 0.796
N17H | 1.77
P1M | 2.17
E19A | 2.3
I24P | 0.158
E10M | 2.33
E19V | 1.95
K40S | 1.97
G16S | 1.22
A9K | 0.809
K7P | 1.16
L25S | 0.333
E26Y | 1.49
I24K | 0.671
E32K | 2.21
R14T | 1.41
R41E | 1.05

Variant | folding stability dG [kcal/mol]
L42W | 3.74
D3H | 1.9
E34Y | 1.51
A13H | 1
D33S | 2.13
Y30M | 1.74
E23V | 1.72
R41D | 0.97
A35W | 1
K40M | 2.22
R6M | 3.24
A9Q | 0.885
R43V | 1.77
L42G | 0.615
G16Y | 1.47
R41S | 1.43
A12Y | 2.6
D4G | 1.75
K40Q | 1.84
R43F | 2.48
K11T | 2.11
R14A | 1.78
E19H | 1.7
K40E | 1.76

Variant | folding stability dG [kcal/mol]
A13D | 0.978
Y30P | 0.57
G29N | 0.552
K20W | 1.98
Y30K | 0.407
D3Q | 1.92
E34S | 1.25
R14Q | 1.89
A13W | 1.82
P1V | 2.13
A21E | 0.697
A35Q | 0.88
D33G | 1.59
E19G | 1.6
L38N | -0.062
R22I | 2.21
L25T | 0.034
A21F | 1.63
R14D | 1.01
R43A | 2.29
R43Y | 2.39
K20T | 1.77
